Source: the supplement of paper PMC10724198
± gives the standard deviation of the averaged measurements.

Assays:
Saccharomyces cerevisiae [1] = assay: protein stability index of tFT-peptide fusion (C-terminal peptide) (PSI (0-1 scale)); higher = more stable (slower turnover); settings: genetic background: wild type; temperature: 30 C
Saccharomyces cerevisiae [2] = assay: as above
Description: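 MPS profiling in S. cerevisiae of the tFT-X12 degron library: putative degron peptides plus stable controls, 12 aa, fused to the C-terminus of a sfGFP-mCherry timer. Cells are FACS-sorted into 8 mCherry/sfGFP bins and deep-sequenced. PSI runs from 0 (unstable) to 1 (stable). Backgrounds are wild type, das1Δ and doa10Δ at 30 °C, and wild type, das1Δ, cdc34-1 and cdc53-1 at 37 °C; 2-3 technical replicates each.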

[3] = genetic background: cdc34-1, temperature: 37 C
[4] = genetic background: cdc53-1, temperature: 37 C
[5] = genetic background: das1 deletion, temperature: 30 C
[6] = genetic background: das1 deletion, temperature: 37 C
[7] = genetic background: doa10 deletion, temperature: 30 C
[8] = genetic background: wild type, temperature: 30 C
[9] = genetic background: wild type, temperature: 37 C
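Also: PSI is a weighted mean of sequencing reads over stability bins, variants kept only with over 10 reads, mCherry proximal and sfGFP distal, peptide attached via GGGS linker.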

Sequence | protein stability index (Saccharomyces cerevisiae [1]) | protein stability index (Saccharomyces cerevisiae [2]; [3]) | protein stability index (Saccharomyces cerevisiae [2]; [4]) | protein stability index (Saccharomyces cerevisiae [2]; [5]) | protein stability index (Saccharomyces cerevisiae [2]; [6]) | protein stability index (Saccharomyces cerevisiae [2]; [7]) | protein stability index (Saccharomyces cerevisiae [2]; [8]) | protein stability index (Saccharomyces cerevisiae [2]; [9])
SIQRKIRRMKEN | 0.4687 ± 0.0016 | 0.559 ± 0.093 | 0.732 ± 0.046 | 0.699 ± 0.048 | 0.7 ± 0.014 | 0.355 ± 0.017 | 0.333 ± 0.054 | 0.566 ± 0.0026
SIVDLFRLRSLS | 0.374 ± 0.12 | 0.643 ± 0.022 | 0.722 ± 0.016 | 0.684 ± 0.008 | 0.7295 ± 0.0054 | 0.264 ± 0.032 | 0.298 ± 0.012 | 0.519 ± 0.0074
SLALLFSFLLFL | 0.438 ± 0.013 | 0.504 ± 0.041 | 0.404 ± 0.028 | 0.448 ± 0.021 | 0.536 ± 0.0096 | 0.605 ± 0.056 | 0.461 ± 0.015 | 0.54 ± 0.042
SLFPHIFFFFFA | 0.49 ± 0.013 | 0.43487 ± 0.00035 | 0.467 ± 0.015 | 0.386 ± 0.036 | 0.428 ± 0.0029 | 0.343 ± 0.015 | 0.295 ± 0.032 | 0.384 ± 0.0099
SLICLSVGVLLR | 0.292 ± 0.0045 | 0.128 ± 0.024 | 0.181 ± 0.061 | 0.189 ± 0.029 | 0.337 ± 0.071 | 0.205 ± 0.003 | 0.188 ± 0.039 | 0.258 ± 0.021
SLSSSFQFSSPS | 0.726 ± 0.094 | 0.701 ± 0.035 | 0.7506 ± 0.0045 | 0.69 ± 0.051 | 0.722 ± 0.026 | 0.6672 ± 0.00083 | 0.65 ± 0.032 | 0.7357 ± 0.0029
SPIGIFCFILCR | 0.187 ± 0.049 | 0.0729 ± 0.011 | 0.0462 ± 0.023 | 0.153 ± 0.027 | 0.211 ± 0.016 | 0.176 ± 0.019 | 0.147 ± 0.038 | 0.157 ± 0.013
SPTQIPLWILAS | 0.186 ± 0.015 | 0.258 ± 0.0095 | 0.394 ± 0.04 | 0.308 ± 0.04 | 0.4539 ± 0.0022 | 0.102 ± 0.0074 | 0.114 ± 0.014 | 0.12 ± 0.015
SRGRVLRLLLLV | 0.124 ± 0.0028 | 0.303 ± 0.0055 | 0.428 ± 0.013 | 0.393 ± 0.025 | 0.524 ± 0.0093 | 0.0727 ± 0.011 | 0.0574 ± 0.026 | 0.0678 ± 0.018
SRRCGLFVFILF | 0.392 ± 0.03 | 0.387 ± 0.042 | 0.378 ± 0.028 | 0.324 ± 0.041 | 0.49 ± 0.021 | 0.365 ± 0.008 | 0.277 ± 0.03 | 0.471 ± 0.006
